Values quoted from earlier work as cited in article PMC12851578.

Target: F-actin (Oryctolagus cuniculus) (UniProt P68135)
Settings: cited from earlier work

Q: Which Kd does the source give for LifeAct (from UniProt Q08641) here?
A: 2.2 µM
